# Test results as given in the DeepSol protein solubility set.
# Experiment: soluble on expression in E. coli; label from the status in PepcDB or PDB records
row,Sequence,soluble on expression in E. coli
1,MAHHHHHHMSSYRSDVDPFKEIRVLPREAAQLRHHLSRINHALQTKYFVAAELSELALQPDRSDEFLALYKAEIYRVVAKLNMNAKKQYTVTVDPLRLTTGFEFKRGADRKDNLGTAVTAATVEGLTSPDVHAKWTASLVETSRLLAQQHAINPNCQALSSALQSTPSSQQTQGLNGGGGAAAVGSDVIGDASTCAIDSDVRKANKESFLFSTPPEFAGFAPSGASPGAP,not soluble
2,MTAPGSVPLTVIGGFWGAGKTTLLNYLLKVQHSERVLVMVNDFGSINIDAELLDQGRHDRPGVVRLQNGCVCCSIGGDLMQAFLQVMSMPDRPDRIIVEASGVADPTRIAQIGRVSGGLSDEGVITLVDASAVRALAADKYVGDIVRQQILSADIVLLNKLDLSSDAEIVETRAWLRDLAPRTRVVSCIHGEVDAVSVLGIGAGKVAPDTAGGPVDVPVPDLRRASTRHADTFHSSTLATEHRFDRRRIEYALDALPQTVLRGKGFVELEGEATPALLQLCGSRWTLDPVSTPAPPAGTHLVFIATGGRGVPRFDAPSHFEQALASRDAASADTSNLEHHHHHH,not soluble
3,TQYKYAWIINGLTKSTGETYIPTAADDGFNIRLEVTGQDAYGQVTEMQYVVYAFSKVETIFSDMYAFAALKTDGSVVTWGYSDYGGDSSSVAGQLTSGVKVIDSTSSAFAAIKEDGSVVTWGDSPYGGDSSSVAGKLTSGVKVIYSNSSAFAAVKQDGSVVTWGSYGGDSSSVAGQLTSGVKVIYSTDSEFGAFAAVKEDGSVVTWGNSPYGGDSSSVAGQLTSGVKVIYSTNNAFAAVKEDGSVVTWGDSGAGGDSSSVAGQLTSGVKVIYSTNNAFAAVKEDGSVVTWGGYGGDSSSVAGQLTSGVKVIYSTNNAFAAVKEDGSVVTWGDSGNGGDSSSVAGQLTSGVKVIDSTYSAFAAVKEDGSVVAWGNSGYGGDSSSVAGQLTSGVKVIDSTTSAFAVVKEDGSVVTWGGSFYGGDSSSVAGQLTSGVKVIYSTSSAFAVVKEDGSVVTWGGSFYGGDSSSVADKLAPNLFLIETSIN,not soluble
4,QVQLVESGGGLVQPGGSLRLSCAASGFTFNSYWINWVRQAPGKGLEWVSGIAYDSSNTLYADSVKGRFTISRDNSKNTLYLQMNSLRAEDTAVYYCARGLGAFHWDMQPDYWGQGTLVTVSSASTKGPSVFPLAPSSKSTSGGTAALGCLVKDYFPEPVTVSWNSGALTSGVHTFPAVLQSSGLYSLSSVVTVPSSSLGTQTYICNVNHKPSNTKVDKKVEPKSCDKTH,soluble
5,MSSTRTASGRTSGRNGTWRNWGGNVSARPAREVTPASVDELADAVRRAAEDGQRVKAVGTGHSFTSIAATDGVLIRPQLLTGIRSIDRDAMTVTVEAGTPLKRLNMALAREGLSLTNMGDIMEQTVSGATSTGTHGTGRDSASIAAQIRGLELVTADGSVLTCSADENPEVFAAARIGLGALGVVTAITFAVEPVFLLTAREEPMPFDRVLADFDALWSENEHFEFYWFPHTNSTNTKRNNRSAGPERPVGRFQGWLDDEFLSNGLFQAVNWVGRAAPATIPSIARISSRALSARTYTDTPYKVFTSPRRVRFVEMEYAVPREAVVEVLRELRTMVDRSRLRISFPVEVRTAPADDITLSTASARDSAYIAVHMFRGTPYQAYFTAAERIFTAHEGRPHWGKVHTRDAGYFSRVYPRFGEFTALRDRLDPDRLFQNDYLRRVLGPLEHHHHHH,soluble
6,MSKLTAAYNKTRECVVTRSKIMMGYPEARYPTIPKILKKTADFQKLEGSKDRIAFTLSQEPIADKKCTEMIKNVLLEQFQDTDIPANYIAVSMALPNFKIGQNCHDFQPLDWYKNIKGYFTYKKITEQVQAAYFNDEAGNQFLAGVCYYATPAGKWVAKLQTEQTLLRFEFQKAEPFPLNSKSRFDTKAFKKFARYGRYCETEGCRVLVWVGKADGQIVHLNYHPVYCMQWTKGCAECAKDHFEYMWIAPEEPVVQKSKEEDYILKAPEDKDLSDFDQLSDVLNVDAISLH,not soluble
7,MGSSHHHHHHSSGLVPRGSHMAKVNAFSKKIGWIEFITGPMFAGKTAELIRRLHRLEYADVKYLVFKPKIDTRSIRNIQSRTGTSLPSVEVESAPEILNYIMSNSFNDETKVIGIDEVQFFDDRICEVANILAENGFVVIISGLDKNFKGEPFGPIAKLFTYADKITKLTAICNECGAEATHSLRKIDGKHADYNDDIVKIGCQEFYSAVCRHHHKVPNRPYLNSNSEEFIKFFKNKKRNKNI,soluble
8,MSQSLFSQPLNVINVGIAMFSDDLKKQHVEVTQLDWTPPGQGNMQVVQALDNIADSPLADKIAAANQQALERIIQSHPVLIGFDQAINVVPGMTAKTILHAGPPITWEKMCGAMKGAVTGALVFEGLAKDLDEAAELAASGEITFSPCHEHDCVGSMAGVTSASMFMHIVKNKTYGNIAYTNMSEQMAKILRMGANDQSVIDRLNWMRDVQGPILRDAMKIIGEIDLRLMLAQALHMGDECHNRNNAGTTLLIQALTPGIIQAGYSVEQQREVFEFVASSDYFSGPTWMAMCKAAMDAAHGIEYSTVVTTMARNGVEFGLRVSGLPGQWFTGPAQQVIGPMFAGYKPEDSGLDIGDSAITETYGIGGFAMATAPAIVALVGGTVEEAIDFSRQMREITLGENPNVTIPLLGFMGVPSAIDITRVGSSGILPVINTAIAHKDAGVGMIGAGIVHPPFACFEKAILGWCERYGV,soluble
9,SGKQPVKLKAVVYALSPFQQKIMTGLWKDLPEKIHHKVSENWISATLLVTPVVGTYWYAQYFKEQEKLEHRF,soluble
10,SNAMTSLEEITKAIMADSQNKVFTEKNIEPLFAAPKTARINIVGQAPGIKAQESRLYWNDKSGDRLREWMGVDYDTFYHSGYFAVIPMDFYYPGKGKSGDLPPRKGFAQKWHQPILDLLPDIQLTILIGNYAQKYYLHQKSSVKLTDTVAHYKKYLPDYFPLVHPSPRNQIWMSRHPWFEAQVVPDLKKIIQQIIQSS,soluble
11,MALHPAHPGAIIGHEAVLALLPRLTAQTLLFSGPEGVGRRTVARWYAWGLNRGFPPPSLGEHPDVLEVGPKARDLRGRAEVRLEEVAPLLEWCSSHPRERVKVAILDSAHLLTEAAANALLKLLEEPPSYARIVLIAPSRATLLPTLASRATEVAFAPVPEEALRALTQDPELLRYAAGAPGRLLRALQDPEGYRARMARAQRVLKAPPLERLALLRELLAEEEGVHALHAVLKRPEHLLALERAREALEGYVSPELVLARLALDLET,soluble
12,MAREAKKDPNELTVEQKLKTLFQLQTMLSKIDEIKTLRGELPLEVQDLEDEIAGLSTRIDKIKAEVDELKSAIAGKRVEIETAKASVEKYKSQQDNVRNNREYDFLTKEIEFQSLEIELCEKRIKEFSADREEKEAEVVKNEQILSERQKDLEQKKGELDEIISETKQEEEKLRDKAKDLETKIEPRLLQSFKRIRKNSRNGLGVVYVQRDACGGCFNKIPPQRQLDIRSRKKVIVCEYCGRIMIDPELAGVQIEHKVEEAPATTTKRAIRRKTAE,not soluble
13,MGSDKIHHHHHHDDTLTSGTITIAVDETFRPIIEEELQVFYALTPDATVHPIYCSEVEAMKLLLADSVRLAITTRQLTRQETAYLNDKKFFPVSVKMATDGLALIVNKQNTDSLITVDQFKEILTGKVTDWKQLNPASRLGELQLVFDNPNSSTVHYVLDSICGGMPLSKDLKAQKTNPEVISYVAKNPAALGVIGVNWIGNPADSTRLSFNDVIRIMAVSRADSATVGNSFKPYQAYLALNQYPLTRNVYILLNDPKSGLPSGLTSFLTDFRGQRIILKSGLVPATAAVRIVDVKEE,not soluble
14,RGRLRIFFGFAAGVGKTYGMLTEAHELLMMGKHVVVGYIEPHDRPDTNRLLEGLPQIPPKNIFYKQMVLTEPDIDQIIQQKPEIVLIDELAHSNAEGSRNRKRYQDIDELLNAGIDVFTTVNVQHIESLNDIVEEVTGIEVKETVPDTFLRQATIRVIDVEPDELIERLEQGKIYANENAKRALKNFFIPQKLDQLRGLAIQRASDHINRISGKTIG,not soluble
